Reference: patent US12533420B2 (NBE-Therapeutics AG, priority 2018, dated 2026)

Columns and labels:
Assay type in all cases: biochemical
[1] = test system: FITC-labelled LPQTGE peptide and GGGK-biotin; assay: Optimization of sortase conjugation reaction conditions, HPLC-based assay; conditions: initial rate (samples up to 3 hours), RP-HPLC, pH 8.5, NaCl, 25° C.
Procedure: The reaction was performed at 25° C. over a period of 24 hours (with 6 samplings in the period up to 3 hours), independently varying the following parameters: • pH over a range of 4 to 11 (using a mixture of boric and citric acid, along with phosphate buffer to achieved the desired pH), while the concentration of NaCl at 500 mM; • NaCl concentration over a range of 0 to 3 M, while maintaining the pH at 8.5 (using 50 mM of sodium phosphate to establish the desired pH).
The reaction was stopped by adding 95 μL of 0.05 M HCl per 5 μL of reaction mixture. Reaction products were loaded into XBridge C18 HPLC columns equilibrated in 0.1% NH4OH in 5% methanol. Elution was performed with a linear gradient from 0 to 100% of 0.1% NH4OH in 95% methanol over 10 mL at flow rate of 0.5 mL/min and a temperature of 30° C. Eluted peptides were detected by absorbance at 497 nm and fluorescence at 522 nm (excitation at 497 nm) and peak areas were quantified.

[2] = test system: FITC-labelled LPXTGE, DNPNTGDE, ENPXTNAGT, KLPXTASN and ALAXTGSE peptides; assay: Sortase activity assay, gel-based, FITC-labelled peptide substrates; conditions: conjugation to 60 kDa Gly6 protein, 25° C., 6 to 24 hours, FITC emission
Procedure: The reaction was performed at 25° C. for 6 to 24 hours, and stopped by addition of reducing SDS-PAGE loading buffer, followed by 5 min. incubation at 95° C. Reaction products were loaded on a 12% SDS-PAGE gel and run according to standard protocols. Labelled reaction products were visualized by FITC emission using the FLA-9000 Imager from Fujifilm, and quantified using ImageJ software.

[3] = test system: self-quenching peptide Dabcyl-QALPQTGET-Edans and triglycine; assay: Optimization of sortase conjugation reaction conditions, fluorescence assay; conditions: initial rate, temperature varied 15 to 45° C., pH 8.5, 500 mM NaCl
Procedure: Reactions were performed over a period of 1 hour, varying the reaction temperature between 15 and 45° C. and measuring fluorescence over time (using a plate reader or fluorescence spectrometer, with excitation at 350 nm and emission at 495 nm).
Initial rate of sortase F-mediated ligation at different temperatures was evaluated based on regression of the fluorescence over time.

B1: sortase F: recombinant sortase F enzyme from P. acnes KPA171202, with N-terminal MS peptide and C-terminal TwinStrep-comprising tag (protein)
chain: TTTSSTSGIPAASAAKKGPVPAGCMKTPKPIVPVKYSIDGMKASAKVLSRGVDETGAAGAPPKNDPSSMAWFNQGPKIGSDKGNAVLTAHTYHKGGALGNRLYDKNNGIKKGDIIRLTDKTGQTVCYRYDHDTKVMVKDYNPNSNILYDNNGPAQAAIVICWDYVKKTGEFDSRVIFYTYPVA
modifications: Propionibacterium acnes
- salt concentration optimum for initial sortase F activity rate [1]: above 250 mM
- substrate peptide on which the enzyme is active [2]: principally active on the LPXTGE
- temperature above which the reaction rate decreased [3]: above 40 °C
- temperature optimum of sortase F activity rate [3]: about 25 °C
